Laboratory results: the Immune Epitope Database (IEDB)
Blank lines part the entries; values can stand above or below the sequence they belong to.

Columns and labels:
HLA-B*44:03 = assay: IEDB peptide-MHC binding, purified MHC/competitive/radioactivity; filed as Kd, often an IC50 or EC50 that approximates it; ≥ and ≤ were set here for values at or beyond the usual limits of such assays
HLA-B*40:01 [1] = assay: as above
HLA-B*45:01 = assay: as above
HLA-B*44:02 = assay: as above
HLA-B*40:02 = assay: as above
HLA-B*18:01 = assay: as above
HLA-B*07:02 = assay: as above
HLA-B*35:01 = assay: as above
HLA-B*40:01 [2] = assay: IEDB peptide-MHC binding, purified MHC/direct/fluorescence; filed as Kd, often an IC50 or EC50 that approximates it; ≥ and ≤ were set here for values at or beyond the usual limits of such assays; conditions: source organism: Mycobacterium avium subsp. paratuberculosis
HLA-A*68:02 = assay: IEDB peptide-MHC binding, purified MHC/competitive/radioactivity; filed as Kd, often an IC50 or EC50 that approximates it; ≥ and ≤ were set here for values at or beyond the usual limits of such assays
HLA-A*02:06 = assay: as above
HLA-B*51:01 [3] = assay: as above
HLA-B*53:01 = assay: as above
HLA-B*51:01 [4] = assay: IEDB peptide-MHC binding, purified MHC/competitive/fluorescence; filed as Kd, often an IC50 or EC50 that approximates it; ≥ and ≤ were set here for values at or beyond the usual limits of such assays; conditions: source organism: Yersinia pestis Nepal516
HLA-A*02:03 = assay: IEDB peptide-MHC binding, purified MHC/competitive/radioactivity; filed as Kd, often an IC50 or EC50 that approximates it; ≥ and ≤ were set here for values at or beyond the usual limits of such assays; conditions: source organism: Trypanosoma cruzi
HLA-A*02:02 = assay: as above; conditions: source organism: Trypanosoma cruzi
HLA-A*24:03 = assay: IEDB peptide-MHC binding, purified MHC/direct/fluorescence; filed as Kd, often an IC50 or EC50 that approximates it; ≥ and ≤ were set here for values at or beyond the usual limits of such assays; conditions: source organism: Mycobacterium tuberculosis variant bovis
[5] = source organism: SARS coronavirus Tor2
[6] = source organism: Dengue virus 1 Brazil/97-11/1997
[7] = source organism: Dengue virus 4 Philippines/H241/1956
[8] = source organism: Mammarenavirus machupoense
[9] = source organism: Mammarenavirus guanaritoense
[10] = source organism: Dengue virus 3 Martinique/1243/1999
[11] = source organism: Trypanosoma cruzi
[12] = source organism: Dengue virus 2 Jamaica/1409/1983

Sequence: GENAVIPKG
Kd (HLA-B*44:03; [5]): 2230 nM
Kd (HLA-B*40:01 [1]; [5]): ≥ 76200 nM
Kd (HLA-B*45:01; [5]): 828 nM
Kd (HLA-B*44:02; [5]): 2030 nM
Kd (HLA-B*40:02; [5]): 907 nM
Kd (HLA-B*18:01; [5]): ≥ 77500 nM

Sequence: GPLIAGGML
Kd (HLA-B*07:02; [6]): 127 nM

Sequence: HEFVDEFYAY
Kd (HLA-B*44:03; [5]): 85.9 nM
Kd (HLA-B*40:01 [1]; [5]): 835 nM
Kd (HLA-B*45:01; [5]): 7210 nM
Kd (HLA-B*44:02; [5]): 3500 nM
Kd (HLA-B*40:02; [5]): 331 nM
Kd (HLA-B*18:01; [5]): 44.2 nM

Sequence: IEELFYSYA
Kd (HLA-B*44:03; [5]): 4600 nM
Kd (HLA-B*40:01 [1]; [5]): 16000 nM
Kd (HLA-B*45:01; [5]): 49.5 nM
Kd (HLA-B*44:02; [5]): 1770 nM
Kd (HLA-B*40:02; [5]): 3060 nM
Kd (HLA-B*18:01; [5]): 3960 nM

Sequence: IPKAYAGPF
Kd (HLA-B*35:01; [7]): 290 nM
Kd (HLA-B*07:02; [7]): 7.32 nM

Sequence: KEHKGVGFL
Kd (HLA-B*40:01 [2]): 30.3 nM

Sequence: KEPQKPLVL
Kd (HLA-B*44:03; [8]): ≥ 23800 nM
Kd (HLA-B*40:01 [1]; [8]): 15800 nM
Kd (HLA-B*45:01; [8]): ≥ 70800 nM
Kd (HLA-B*44:02; [8]): 18000 nM
Kd (HLA-B*40:02; [8]): 401 nM
Kd (HLA-B*18:01; [8]): ≥ 77500 nM

Sequence: LEREQIPTLI
Kd (HLA-B*44:03; [9]): 12800 nM
Kd (HLA-B*40:01 [1]; [9]): 2750 nM
Kd (HLA-B*45:01; [9]): 9710 nM
Kd (HLA-B*44:02; [9]): 19600 nM
Kd (HLA-B*40:02; [9]): 559 nM
Kd (HLA-B*18:01; [9]): ≥ 57500 nM

Sequence: LPWTSGATT
Kd (HLA-B*35:01; [10]): 1300 nM
Kd (HLA-B*07:02; [10]): 25.8 nM

Sequence: LVMLLVHYAI
Kd (HLA-A*68:02; [7]): 1260 nM
Kd (HLA-A*02:06; [7]): 151 nM

Sequence: MPSMKRFRKE
Kd (HLA-B*35:01; [10]): 14000 nM
Kd (HLA-B*51:01 [3]; [10]): ≥ 69600 nM
Kd (HLA-B*53:01; [10]): 10900 nM

Sequence: MTCIAVGMV
Kd (HLA-A*68:02; [6]): 7.63 nM

Sequence: MTYLPAWQV
Kd (HLA-B*51:01 [4]): ≥ 20000 nM

Sequence: NPRLCTREEF
Kd (HLA-B*35:01; [7]): 892 nM
Kd (HLA-B*53:01; [7]): 197 nM

Sequence: PPFGESYIV
Kd (HLA-B*51:01 [3]; [6]): 9840 nM

Sequence: QEAYYRARAG
Kd (HLA-B*44:03; [5]): 411 nM
Kd (HLA-B*40:01 [1]; [5]): 12700 nM
Kd (HLA-B*45:01; [5]): 607 nM
Kd (HLA-B*44:02; [5]): 954 nM
Kd (HLA-B*40:02; [5]): 963 nM
Kd (HLA-B*18:01; [5]): ≥ 36100 nM

Sequence: QECNNMHLST
Kd (HLA-B*44:03; [5]): 7120 nM
Kd (HLA-B*40:01 [1]; [5]): 15200 nM
Kd (HLA-B*45:01; [5]): 636 nM
Kd (HLA-B*44:02; [5]): 5610 nM
Kd (HLA-B*40:02; [5]): 595 nM
Kd (HLA-B*18:01; [5]): ≥ 70500 nM

Sequence: QEKAPDVGEL
Kd (HLA-B*44:03; [8]): ≥ 20900 nM
Kd (HLA-B*40:01 [1]; [8]): 13000 nM
Kd (HLA-B*45:01; [8]): 7030 nM
Kd (HLA-B*44:02; [8]): 2340 nM
Kd (HLA-B*40:02; [8]): 1070 nM
Kd (HLA-B*18:01; [8]): ≥ 44600 nM

Kd (HLA-A*68:02; source organism: Homo sapiens): 13400 nM
Kd (HLA-A*02:06; source organism: Homo sapiens): ≥ 32100 nM
Sequence: QLKDKADFCI

Sequence: REAACCHLA
Kd (HLA-B*44:03; [5]): 1910 nM
Kd (HLA-B*40:01 [1]; [5]): 236 nM
Kd (HLA-B*45:01; [5]): 11.4 nM
Kd (HLA-B*44:02; [5]): 3030 nM
Kd (HLA-B*40:02; [5]): 97.5 nM
Kd (HLA-B*18:01; [5]): ≥ 31400 nM

Sequence: RPISEKEENM
Kd (HLA-B*35:01; [10]): 502 nM
Kd (HLA-B*07:02; [10]): 135 nM

Sequence: RVSRPTTVV
Kd (HLA-A*68:02; [11]): 200 nM
Kd (HLA-A*02:03): 105 nM
Kd (HLA-A*02:06; [11]): 1340 nM
Kd (HLA-A*02:02): 6200 nM

Sequence: SEVAVLYQDV
Kd (HLA-B*44:03; [5]): 104 nM
Kd (HLA-B*40:01 [1]; [5]): 962 nM
Kd (HLA-B*45:01; [5]): 200 nM
Kd (HLA-B*44:02; [5]): 1120 nM
Kd (HLA-B*40:02; [5]): 134 nM
Kd (HLA-B*18:01; [5]): 3110 nM

Sequence: SYYPDQKSL
Kd (HLA-A*24:03): 8.4 nM

Sequence: TALTGATEI
Kd (HLA-B*51:01 [3]; [12]): 623 nM

Sequence: TEVVGNVIL
Kd (HLA-B*44:03; [5]): 6820 nM
Kd (HLA-B*40:01 [1]; [5]): 14.9 nM
Kd (HLA-B*45:01; [5]): 15100 nM
Kd (HLA-B*44:02; [5]): 15200 nM
Kd (HLA-B*40:02; [5]): 177 nM
Kd (HLA-B*18:01; [5]): 5870 nM

Sequence: TEYDGHINL
Kd (HLA-B*44:03; source organism: Variola virus): 9880 nM
Kd (HLA-B*40:01 [1]; source organism: Variola virus): 6.19 nM
Kd (HLA-B*45:01; source organism: Variola virus): 391 nM
Kd (HLA-B*44:02; source organism: Variola virus): 58.3 nM
Kd (HLA-B*40:02; source organism: Variola virus): 0.998 nM
Kd (HLA-B*18:01; source organism: Variola virus): 11.5 nM

Sequence: TPPGATDPF
Kd (HLA-B*35:01; [7]): 132 nM
Kd (HLA-B*07:02; [7]): 1070 nM

Sequence: TPQAPTSEIQ
Kd (HLA-B*07:02; [6]): 808 nM

Sequence: TPRMCTREE
Kd (HLA-B*07:02; [12]): 1930 nM

Sequence: TVHADTGCAV
Kd (HLA-A*68:02; [7]): 86.1 nM

Sequence: VPNYNMIIM
Kd (HLA-B*35:01; [6]): 13.5 nM
Kd (HLA-B*07:02; [6]): 54 nM
Kd (HLA-B*51:01 [3]; [6]): 879 nM

Sequence: WEVGKPRPPL
Kd (HLA-B*44:03; [5]): 7210 nM
Kd (HLA-B*40:01 [1]; [5]): 15.9 nM
Kd (HLA-B*45:01; [5]): ≥ 59600 nM
Kd (HLA-B*44:02; [5]): 5920 nM
Kd (HLA-B*40:02; [5]): 18.6 nM
Kd (HLA-B*18:01; [5]): ≥ 23900 nM
